Measurements taken from patent US20230416942A1 (YALE UNIVERSITY, published 2023).

Experiments:
PROCR [1] = target: T1, PROCR (human, UniProt Q9UNN8 18-210); experiment: ELISA, plate-coated recombinant human protein, nanobody-Fc
T1 construct: Recombinant human protein in ELISA and BLI
T1 sequence (looked up): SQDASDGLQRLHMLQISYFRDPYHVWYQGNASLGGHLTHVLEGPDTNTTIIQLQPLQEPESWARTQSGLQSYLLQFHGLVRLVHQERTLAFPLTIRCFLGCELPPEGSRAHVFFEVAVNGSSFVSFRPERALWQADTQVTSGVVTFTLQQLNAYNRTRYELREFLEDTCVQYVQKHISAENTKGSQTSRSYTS
Method: (§1) Recombinant human protein was diluted in PBS to a final concentration of 5 μg/mL and was immobilized on 96-well flat bottom MaxiSorp plates (Thermo Fisher Scientific) and placed at 4° C. overnight. Plates were washed three times with 225 μL ELISA wash buffer (PBS with 0.05% Tween 20) and 200 μL ELISA blocking buffer (PBS with 1% Casein) was added to the well. Plates were incubated with shaking for 2 hours at room temperature. ELISA blocking buffer was removed from the wells and appropriate dilutions of recombinant nanobodies in 100 μL ELISA blocking buffer was added to each well. Plates were incubated with shaking for 2 hours at room temperature. Plates were washed 3 times with 225 μL ELISA wash buffer and 1:5000 goat anti-human IgG HRP (Millipore Sigma) in 100 μL ELISA blocking buffer was added to the wells. Plates were incubated with shaking for 1 hour at room temperature. Plates were washed 6 times with 225 μL ELISA wash buffer. 50 μL TMB substrate (BD Biosciences) was added to the wells and plates were incubated for 15 minutes in the dark at room temperature. 50 μL 1 M sulfuric acid was added to the wells and absorbance at 450 nm was measured in a Synergy HTX Multi-Mode Microplate Reader (BioTek).

PROCR [2] = target: T1, PROCR; experiment: BLI, AHC sensor, nanobody-Fc captured, antigen in solution
Excerpt: (§2) Octet RED96 System (ForteBio) was used to perform kinetic measurement of nanobody binding to antigens. For Anti-Penta-His Biosensors (HIS1K), his-tagged recombinant human proteins were first immobilized onto the biosensors, and recombinant nanobodies fused with human IgG1 were applied to detect binding. For Anti-Human IgG Fc Capture Biosensors (AHC), recombinant nanobodies fused with human IgG1 were first loaded onto the biosensors, and probes were dipped in serial dilutions of recombinant human antigens.

CCL16 [3] = target: T2, CCL16 (human, UniProt O15467 24-120); experiment: ELISA, plate-coated recombinant human protein, nanobody-Fc
T2 construct: Recombinant human protein in ELISA and BLI
T2 sequence (looked up): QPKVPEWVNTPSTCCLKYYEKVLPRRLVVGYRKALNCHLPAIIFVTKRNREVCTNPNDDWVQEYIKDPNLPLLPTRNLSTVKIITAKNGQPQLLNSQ
Method: as §1

CCL16 [4] = target: T2, CCL16; experiment: BLI, AHC sensor, nanobody-Fc captured, antigen in solution
Excerpt: as §2

IL1RN [5] = target: T3, IL1RN (human, UniProt P18510 26-177); experiment: ELISA, plate-coated recombinant human protein, nanobody-Fc
T3 construct: Recombinant human protein in ELISA and BLI
Method: as §1

IL1RN [6] = target: T3, IL1RN; experiment: BLI, AHC sensor, nanobody-Fc captured, antigen in solution
Excerpt: as §2

LAIR2 = target: T4, LAIR2 (human, UniProt Q6ISS4 22-152); experiment: ELISA, plate-coated recombinant human protein, nanobody-Fc
T4 construct: Recombinant human protein in ELISA
T4 sequence (looked up): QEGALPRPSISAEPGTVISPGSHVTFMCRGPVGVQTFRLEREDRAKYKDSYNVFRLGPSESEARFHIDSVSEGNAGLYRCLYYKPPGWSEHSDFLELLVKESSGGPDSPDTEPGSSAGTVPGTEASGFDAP
Method: as §1

IL10RA = target: T5, IL10RA (human, UniProt Q13651 22-235); experiment: as above
T5 construct: Recombinant human protein in ELISA
T5 sequence (looked up): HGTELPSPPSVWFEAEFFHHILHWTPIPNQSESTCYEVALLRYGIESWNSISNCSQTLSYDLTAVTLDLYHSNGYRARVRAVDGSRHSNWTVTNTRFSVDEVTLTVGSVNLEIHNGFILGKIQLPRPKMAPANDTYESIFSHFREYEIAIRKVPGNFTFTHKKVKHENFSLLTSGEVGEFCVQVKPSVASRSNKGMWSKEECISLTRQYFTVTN
Method: as §1

T3 sequence (P18510 26-177 limits assumed): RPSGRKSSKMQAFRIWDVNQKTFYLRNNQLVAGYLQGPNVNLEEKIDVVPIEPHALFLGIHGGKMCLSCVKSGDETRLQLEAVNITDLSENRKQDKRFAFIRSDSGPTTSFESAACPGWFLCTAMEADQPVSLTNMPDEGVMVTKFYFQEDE

B1: PROCR_Nb87 (Fc fusion)
chain: QVQLQESGGGLVQAGGSLRLSCAASGSISSYPYMGWYRQAPGKERELVASIASGTNTYYADSVKGRFTISRDNAKNTVYLQMNSLKPEDTAVYYCAADSTGPWSHVYWGQGTQVTVSS
notes: Nanobody expressed and tested as Fc fusion (human IgG1); not shown: human IgG1 Fc (vector pCER243)
- EC50 (PROCR [1]): 0.0104 nM
- Kd (PROCR [2]): 92.1 nM

B2: CCL16_Nb2.1 (Fc fusion)
chain: QVQLQESGGGLVQAGGSLRLSCAASGYISSYWDMGWYRQAPGKERELVAAIAPGTITYYADSVKGRFTISRDNAKNTVYLQMNSLKPEDTAVYYCAASEFDNEAHDYWGQGTQVTVSS
notes: as for B1
- EC50 (CCL16 [3]): 0.882 nM
- Kd (CCL16 [4]): 17.4 nM

B3: IL1RN_Nb77 (Fc fusion)
chain: QVQLQESGGGLVQAGGSLRLSCAASGTIFTWLVMGWYRQAPGKERELVASIDPGTNTYYADSVKGRFTISRDNAKNTVYLQMNSLKPEDTAVYYCAARYVAGYTVGAYHYYWGQGTQVTVSS
notes: as for B1
- EC50 (IL1RN [5]): 0.168 nM
- Kd (IL1RN [6]): 852 nM

B4: PROCR_Nb88 (Fc fusion)
chain: QVQLQESGGGLVQAGGSLRLSCAASGTIFKLGYMGWYRQAPGKEREFVATITTGATTYYADSVKGRFTISRDNAKNTVYLQMNSLKPEDTAVYYCAADTYGPWAYSYWGQGTQVTVSS
notes: as for B1
- EC50 (PROCR [1]): 0.287 nM
- Kd (PROCR [2]): 62.9 nM

B5: LAIR2_Nb2.51 (Fc fusion)
chain: QVQLQESGGGLVQAGGSLRLSCAASGSIFYPSAMGWYRQAPGKERELVASIGQGGSTYYADSVKGRFTISRDNAKNTVYLQMNSLKPEDTAVYYCAVQPYSANLHRYWGQGTQVTVSS
notes: as for B1
- EC50 (LAIR2): 0.379 nM

B6: IL10RA_Nb72 (Fc fusion)
chain: QVQLQESGGGLVQAGGSLRLSCAASGTISSEHAMGWYRQAPGKERELVAGITYGSITNYADSVKGRFTISRDNAKNTVYLQMNSLKPEDTAVYYCAVYYYYRATIYHALGYWGQGTQVTVSS
notes: as for B1
- EC50 (IL10RA): 16.9 nM

B7: IL1RN_Nb75 (Fc fusion)
chain: QVQLQESGGGLVQAGGSLRLSCAASGNIFRYDNMGWYRQAPGKEREFVATITYGSNTYYADSVKGRFTISRDNAKNTVYLQMNSLKPEDTAVYYCAAYFPYRSYDNSADTSSHSYWGQGTQVTVSS
notes: as for B1
- EC50 (IL1RN [5]): 6.9 nM
